To fix the notation:
B2: FtsZ (natural protein, E. coli, UniProt P0A9A6 1-383, looked up)
chain: MFEPMELTNDAVIKVIGVGGGGGNAVEHMVRERIEGVEFFAVNTDAQALRKTAVGQTIQIGSGITKGLGAGANPEVGRNAADEDRDALRAALEGADMVFIAAGMGGGTGTGAAPVVAEVAKDLGILTVAVVTKPFNFEGKKRMAFAEQGITELSKHVDSLITIPNDKLLKVLGRGISLLDAFGAANDVLKGAVQGIAELITRPGLMNVDFADVRTVMSEMGYAMMGSGVASGEDRAEEAAEMAISSPLLEDIDLSGARGVLVNITAGFDLRLDEFETVGNTIRAFASDNATVVIGTSLDPDMNDELRVTVVATGIGMDKRPEITLVTNKQVQQPVMDRYQQHGMAPLTQEQKPVAKVVNDNAPQTAKEPDYLDIPAFLRKQAD
modifications: Alexa Fluor 488 or Alexa Fluor 647 on amino groups, only in the tracer fraction (below 1 mole of dye per mole of protein)
notes: Cell division GTPase FtsZ, E. coli; The methods name no species for the construct; Oligomers without GTP (GDP form), polymers with GTP; also called FtsZ-Alexa 647; source: purified as described in [6,22,25]

Series [1] deals with the molecule itself. Description: fluorescence correlation spectroscopy; no GTP (FtsZ oligomers); solution buffer with 100 mM KCl; 10 nM ZapA-Alexa 488 or SBS-Alexa 488 as tracer; 5 uM ZapA, 5 uM SlmA, 1 uM SBS, 50 or 20 uM FtsZ.
Series [2] addresses B2. Description: fluorescence correlation spectroscopy; FtsZ polymers: 10 uM FtsZ, 2 mM GTP and enzymatic GTP regeneration system; 10 nM labelled tracer; solution buffer. Conditions: both partners purified.
Series [3] deals with the molecule itself. Description: fluorescence polarisation; anisotropy with time after addition of GTP; 5 uM FtsZ with 50 nM FtsZ-Alexa 488 as tracer; solution buffer with 300 mM KCl; 27 C.

This is an account of results in PMC9974302, “Bacterial division ring stabilizing ZapA versus destabilizing SlmA modulate FtsZ switching between biomolecular condensates and polymers” (Open Biology, 2023).

As usually defined, the stoichiometry N is the number of molecules, sites or subunits per partner or assembly.

B1: ZapA (natural protein, E. coli, UniProt P0ADS2 1-109, looked up)
chain: MSAQPVDIQIFGRSLRVNCPPDQRDALNQAADDLNQRLQDLKERTRVTNTEQLVFIAALNISYELAQEKAKTRDYAASMEQRIRMLQQTIEQALLEQGRITEKTNQNFE
modifications: Alexa Fluor 488 on amino groups, only in the tracer fraction (below 1 mole of dye per mole of protein)
notes: Cell division protein ZapA, E. coli; Dimer-tetramer equilibrium that depends on salt; source: BL21(DE3) strain carrying plasmid pEJR029b, purified
Regarding B1, in series [1], the “stoichiometry N” value amounted to 4. In addition, the binding result in series [2] was “binds”.

Turning to B2, the binding result in series [3] is listed as “binds”.
